The record followed here is patent publication US20030068675, “Position dependent recognition of GNN nucleotide triplets by zinc fingers” (published 2003).

What all share (assay): EMSA
Holding throughout (details): tags: MBP fusion

The target in series [1] is ZFP SBS#1098 (synthetic). Put shortly: (§1)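 Purified ZFP was titrated against labeled double-stranded target (1 nM or lower, at least 10-fold below expected Kd) carrying the natural binding site with flanks. Binding buffer was 10 mM Tris pH 7.5, 100 mM KCl, 1 mM MgCl2, 0.1 mM ZnCl2, 5 mM DTT, 10% glycerol, 0.02% BSA, with equilibration for at least 45 min. Bound and free target were separated on a 10% polyacrylamide gel.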

The target of series [2] is T1, ZFP SBS#1172 (synthetic).
T1 chain: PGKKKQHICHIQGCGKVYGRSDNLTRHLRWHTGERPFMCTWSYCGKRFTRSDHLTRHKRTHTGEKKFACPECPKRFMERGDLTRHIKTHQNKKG
Put shortly:
as §1

In series [3] the target is T2, ZFP SBS#1186 (synthetic).
T2 chain: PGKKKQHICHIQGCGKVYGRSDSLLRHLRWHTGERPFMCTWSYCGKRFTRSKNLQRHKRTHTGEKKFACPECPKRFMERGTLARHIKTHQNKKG
The gist of the method: as §1

The target of series [4] is T3, ZFP SBS#1185 (synthetic).
T3 chain: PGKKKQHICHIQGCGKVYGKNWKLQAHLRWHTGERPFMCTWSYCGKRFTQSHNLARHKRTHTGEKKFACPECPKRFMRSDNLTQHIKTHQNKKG
Put shortly:
as §1

Series [5] deals with ZFP SBS#1180 (synthetic). Put shortly:
as §1

Series [6] addresses T4, ZFP SBS#1184 (synthetic).
T4 chain: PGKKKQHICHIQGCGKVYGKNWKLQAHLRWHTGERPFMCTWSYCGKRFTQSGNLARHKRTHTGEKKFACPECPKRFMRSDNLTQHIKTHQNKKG
The gist of the method:
as §1

The target of series [7] is T5, ZFP SBS#479 (synthetic, UniProt P08047).
T5 chain: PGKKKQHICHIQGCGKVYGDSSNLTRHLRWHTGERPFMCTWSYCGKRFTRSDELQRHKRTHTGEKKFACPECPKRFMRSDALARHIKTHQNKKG
Put shortly:
as §1

Series [8] addresses T6, ZFP SBS#480 (synthetic).
T6 chain: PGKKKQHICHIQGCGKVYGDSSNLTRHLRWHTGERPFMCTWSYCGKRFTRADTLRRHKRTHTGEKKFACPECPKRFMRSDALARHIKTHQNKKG
Put shortly: as §1

Series [9] deals with T7, ZFP SBS#1156 (synthetic).
T7 chain: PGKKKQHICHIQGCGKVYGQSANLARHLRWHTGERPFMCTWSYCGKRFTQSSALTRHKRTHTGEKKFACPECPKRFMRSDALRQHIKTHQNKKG
The gist of the method: as §1

In series [10] the target is T8, ZFP SBS#1189 (synthetic).
T8 chain: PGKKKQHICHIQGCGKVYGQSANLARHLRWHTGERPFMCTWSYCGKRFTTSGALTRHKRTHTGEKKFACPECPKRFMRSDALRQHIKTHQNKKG
Put shortly:
as §1

The target in series [11] is T9, ZFP SBS#1157 (synthetic).
T9 chain: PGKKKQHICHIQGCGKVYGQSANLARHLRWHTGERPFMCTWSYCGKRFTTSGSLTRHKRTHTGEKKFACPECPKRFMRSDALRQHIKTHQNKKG
The gist of the method:
as §1

In series [12] the target is ZFP SBS#1174 (synthetic). Put shortly: as §1
In series [13] the target is ZFP SBS#1173 (synthetic). The gist of the method:
as §1

In series [14] the target is T10, ZFP SBS#1177 (synthetic).
T10 chain: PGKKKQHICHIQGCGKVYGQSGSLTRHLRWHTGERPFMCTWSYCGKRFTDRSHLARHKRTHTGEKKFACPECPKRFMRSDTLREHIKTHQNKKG
Put shortly:
as §1

For series [15], the target named is ZFP SBS#1188 (synthetic). Put shortly:
as §1

Series [16] concerns the target ZFP SBS#1151 (synthetic). The gist of the method:
as §1

The target of series [17] is T11, ZFP SBS#1128 (synthetic).
T11 chain: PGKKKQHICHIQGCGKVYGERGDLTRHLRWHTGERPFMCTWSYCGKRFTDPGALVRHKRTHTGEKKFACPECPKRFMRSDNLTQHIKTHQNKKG
The gist of the method:
as §1

The target in series [18] is ZFP SBS#1175 (synthetic). The gist of the method: as §1
Series [19] deals with ZFP SBS#1176 (synthetic). Put shortly:
as §1

The target in series [20] is T12, ZFP SBS#1131 (synthetic).
T12 chain: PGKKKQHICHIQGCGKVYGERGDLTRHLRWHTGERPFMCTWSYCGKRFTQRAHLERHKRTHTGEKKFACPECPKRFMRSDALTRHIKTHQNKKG
Put shortly: as §1

In series [21] the target is T13, ZFP SBS#1170 (synthetic).
T13 chain: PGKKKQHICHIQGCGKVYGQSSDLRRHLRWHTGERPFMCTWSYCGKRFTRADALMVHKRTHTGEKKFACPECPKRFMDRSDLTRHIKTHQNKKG
The gist of the method:
as §1

The target in series [22] is T14, ZFP SBS#1092 (synthetic).
T14 chain: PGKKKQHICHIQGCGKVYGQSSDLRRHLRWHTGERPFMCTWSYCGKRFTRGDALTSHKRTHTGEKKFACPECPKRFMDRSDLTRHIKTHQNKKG
The gist of the method: as §1

In series [23] the target is ZFP SBS#1192 (synthetic). Put shortly: as §1
Sequence of ZFP SBS#1192 (synthetic) (chain, as listed by the source): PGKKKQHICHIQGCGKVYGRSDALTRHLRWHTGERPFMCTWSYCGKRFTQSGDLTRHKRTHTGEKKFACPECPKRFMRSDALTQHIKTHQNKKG
Series [24] concerns the target ZFP SBS#1190 (synthetic). The gist of the method: as §1
The target in series [25] is T15, ZFP SBS#1193 (synthetic).
T15 chain: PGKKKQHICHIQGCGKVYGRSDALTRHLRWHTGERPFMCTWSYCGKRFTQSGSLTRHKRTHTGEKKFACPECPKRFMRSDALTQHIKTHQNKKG
Put shortly:
as §1

The target in series [26] is T16, ZFP SBS#1191 (synthetic).
T16 chain: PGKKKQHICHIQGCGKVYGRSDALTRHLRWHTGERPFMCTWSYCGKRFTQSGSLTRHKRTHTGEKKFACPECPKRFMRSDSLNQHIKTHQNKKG
Put shortly: as §1

The target of series [27] is T17, ZFP SBS#1187 (synthetic, UniProt P08047).
T17 chain: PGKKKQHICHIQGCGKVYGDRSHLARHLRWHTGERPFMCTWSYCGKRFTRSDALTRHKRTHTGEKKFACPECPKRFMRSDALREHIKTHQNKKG
The gist of the method:
as §1

Series [28] concerns the target T18, ZFP SBS#1126 (synthetic).
T18 chain: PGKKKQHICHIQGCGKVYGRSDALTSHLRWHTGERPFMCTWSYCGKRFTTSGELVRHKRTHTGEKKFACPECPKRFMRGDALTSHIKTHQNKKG
Put shortly:
as §1

Series [29] deals with T19, ZFP SBS#1181 (synthetic).
T19 chain: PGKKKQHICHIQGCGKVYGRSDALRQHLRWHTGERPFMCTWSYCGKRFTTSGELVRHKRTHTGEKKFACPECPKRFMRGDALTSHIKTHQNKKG
Put shortly: as §1

For series [30], the target named is ZFP SBS#1182 (synthetic). The gist of the method:
as §1

Series [31] deals with T20, ZFP SBS#1183 (synthetic).
T20 chain: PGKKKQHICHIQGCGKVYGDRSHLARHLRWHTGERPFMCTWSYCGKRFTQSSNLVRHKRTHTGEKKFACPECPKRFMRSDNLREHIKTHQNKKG
Put shortly:
as §1

Series [32] has as its target T21, ZFP SBS#1171 (synthetic).
T21 chain: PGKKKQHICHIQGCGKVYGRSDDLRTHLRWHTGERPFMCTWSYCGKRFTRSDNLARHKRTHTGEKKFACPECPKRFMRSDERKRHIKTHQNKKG
The gist of the method:
as §1

Series [33] addresses ZFP SBS#1093 (synthetic). Put shortly:
as §1

Series [34] has as its target T22, ZFP SBS#1099 (synthetic).
T22 chain: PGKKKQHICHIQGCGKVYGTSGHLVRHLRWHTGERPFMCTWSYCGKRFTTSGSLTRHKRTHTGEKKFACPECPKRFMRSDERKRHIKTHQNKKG
Put shortly: as §1

The target of series [35] is T23, ZFP SBS#1178 (synthetic).
T23 chain: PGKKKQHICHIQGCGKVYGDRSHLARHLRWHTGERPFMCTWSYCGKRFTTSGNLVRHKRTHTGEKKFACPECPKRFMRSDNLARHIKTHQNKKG
Put shortly: as §1

Sequence of ZFP SBS#1188 (synthetic) (chain, as listed by the source): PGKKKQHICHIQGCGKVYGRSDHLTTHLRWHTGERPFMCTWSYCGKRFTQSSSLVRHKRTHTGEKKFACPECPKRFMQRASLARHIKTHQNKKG
Sequence of ZFP SBS#1190 (synthetic) (chain, as listed by the source): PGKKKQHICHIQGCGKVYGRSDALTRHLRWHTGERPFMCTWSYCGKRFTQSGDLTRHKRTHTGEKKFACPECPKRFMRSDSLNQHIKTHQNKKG
Sequence of ZFP SBS#1151 (synthetic) (chain, as listed by the source): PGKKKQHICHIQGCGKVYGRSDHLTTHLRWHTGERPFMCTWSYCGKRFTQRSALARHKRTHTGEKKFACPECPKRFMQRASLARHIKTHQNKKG
Sequence of ZFP SBS#1180 (synthetic) (chain, as listed by the source): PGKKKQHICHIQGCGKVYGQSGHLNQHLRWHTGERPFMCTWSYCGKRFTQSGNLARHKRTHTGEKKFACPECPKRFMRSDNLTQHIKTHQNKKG

B1: GCCGGGGAG (dsDNA)
DNA 1: GCCGGGGAG
DNA 2: CTCCCCGGC
As usually defined, the Kd is a measure of binding affinity in units of concentration. Higher therefore signals a looser complex. Consider B1, for which the results for the Kd in series [1] and in series [2] were 0.055 nM and 0.01 nM, respectively.

B2: GCCGAGGTG (dsDNA)
DNA 1: GCCGAGGTG
DNA 2: CACCTCGGC
Take B2: the Kd in [3] was determined as 27.5 nM.

B3: AAGGAAAGA (dsDNA)
DNA 1: AAGGAAAGA
DNA 2: TCTTTCCTT
B3: the Kd in series [4] is 5.25 nM; in series [5] it was 4.83 nM; in series [6], 2.79 nM.

B4: GTGGCGGACC (dsDNA)
DNA 1: GTGGCGGACC
DNA 2: GGTCCGCCAC
On to B4, for which the Kd in [7] was determined as 8.5 nM; in series [8], 5 nM.

B5: ATGGTTGAA (dsDNA)
DNA 1: ATGGTTGAA
DNA 2: TTCAACCAT
On to B5, for which the Kd in [9] is 7.2 nM; in series [10], 1.51 nM; in series [11], 0.885 nM.

B6: GCTGAAGGG (dsDNA)
DNA 1: GCTGAAGGG
DNA 2: CCCTTCAGC
For the molecule B6, the Kd was 0.018 nM in series [12] and 0.008 nM in series [13].

B7: CCGGGCGCA (dsDNA)
DNA 1: CCGGGCGCA
DNA 2: TGCGCCCGG
As for B7, in series [14], the dissociation constant Kd worked out at 4.1 nM.

B8: GTAGTATGG (dsDNA)
DNA 1: GTAGTATGG
DNA 2: CCATACTAC
For the molecule B8, the Kd in series [15] stood at 2.74 nM; in series [16] it was 1.63 nM.

B9: AAGGTCGCC (dsDNA)
DNA 1: AAGGTCGCC
DNA 2: GGCGACCTT
Regarding B9, the Kd in series [17] came to 5.45 nM; in [18] it was 8.9 nM.

B10: GTGGGAGCC (dsDNA)
DNA 1: GTGGGAGCC
DNA 2: GGCTCCCAC
B10: the figures for the Kd in series [19] and in [20] were 4.1 nM and 0.95 nM, respectively.

B11: GCCTTGGCT (dsDNA)
DNA 1: GCCTTGGCT
DNA 2: AGCCAAGGC
With B11, the Kd was found to be 2.75 nM in [21] and 2.73 nM in [22].

B12: ATGGCAGTG (dsDNA)
DNA 1: ATGGCAGTG
DNA 2: CACTGCCAT
Consider B12, for which the Kd in [23] was determined as 2.36 nM; in [24], 1.48 nM; in [25], 3.12 nM; in series [26], 5.33 nM.

B13: CTGGTGGGC (dsDNA)
DNA 1: CTGGTGGGC
DNA 2: GCCCACCAG
Molecule B13 yielded a dissociation constant (Kd) in [27] of 0.006 nM.

B14: TTGGCTATG (dsDNA)
DNA 1: TTGGCTATG
DNA 2: CATAGCCAA
As to B14, the Kd in [28] amounted to 0.46 nM; in series [29], 8.2 nM.

B15: CAGGAAGGC (dsDNA)
DNA 1: CAGGAAGGC
DNA 2: GCCTTCCTG
As for B15, the Kd in series [30] was found to be 1.48 nM; in series [31], 1.94 nM.

B16: GCGGAGTCG (dsDNA)
DNA 1: GCGGAGTCG
DNA 2: CGACTCCGC
On to B16, for which the Kd is 0.18 nM in series [32], 0.046 nM in series [33] and 0.45 nM in series [34].

B17: GAGGATGGC (dsDNA)
DNA 1: GAGGATGGC
DNA 2: GCCATCCTC
For the molecule B17, the Kd in series [35] came out at 0.085 nM.
